According to publication PMC4990970:

Columns and labels:
[1] = biological target: AtBAG5/Hsc70 complex (AtBAG5-long/Hsp70) (Arabidopsis thaliana | human) (UniProt O65373); assay: ITC; iTC200, room temperature, 20 mM Tris-HCl pH 7.5, 500 mM NaCl, 5 mM EGTA (apo-CaM, absence of calcium); 0.05-0.1 mM in the cell, 0.5-1.0 mM in the syringe
[2] = biological target: AtBAG5/Hsc70 complex (AtBAG5-long/Hsp70) (Arabidopsis thaliana | human) (UniProt O65373); assay: ITC; iTC200, room temperature, 20 mM Tris-HCl pH 7.5, 500 mM NaCl, 10 mM CaCl2 (holo-CaM, presence of calcium); 0.05-0.1 mM in the cell, 0.5-1.0 mM in the syringe

Substance “Calmodulin (CaM) (from UniProt P0DP23 1-149) (natural protein)” has a Kd [1] of 0.39 µM and a Kd [2] of 21.2 µM.
